# Assay results taken from publication PMC4108183.
# Key:
# purified protein [1] = substrate: O=S(O)(O)=S; test: purified protein; settings: pH 9.0, 37.0 °C
# purified protein [2] = substrate: CC(C)(COP(=O)(O)OP(=O)(O)OC[C@H]1O[C@@H](n2cnc3c(N)ncnc32)[C@H](O)[C@@H]1OP(=O)(O)O)[C@@H](O)C(=O)NCCC(=O)NCCS; test: purified protein; settings: alternate sulfane sulfur acceptor; pH 9.0; 37.0 °C
Protein,Km (purified protein [1]; sulfane sulfur transferred to active site cysteine (Cys79)) [µM],Km (purified protein [2]) [µM],Km (purified protein [1]; sulfane sulfur transferred to active site cysteine (Cys98)) [µM]
human TSTD1 (Homo sapiens) (protein) MAGAPTVSLPELRSLLASGRARLFDVRSREEAAAGTIPGALNIPVSELESALQMEPAAFQALYSAEKPKLEDEHLVFFCQMGKRGLQATQLARSLGYTGARNYAGAYREWLEKES,14000 ± 2000,90 ± 10,–
yeast RDL1 (Saccharomyces cerevisiae S288C) (protein) MWKAVMNAWNGTESQSKNVSNIQSYSFEDMKRIVGKHDPNVVLVDVREPSEYSIVHIPASINVPYRSHPDAFALDPLEFEKQIGIPKPDSAKELIFYCASGKRGGEAQKVASSHGYSNTSLYPGSMNDWVSHGGDKLDL,–,150 ± 50,2000 ± 500
